Source: the supplement of paper PMC10065799, “High-throughput profiling of sequence recognition by tyrosine kinases and SH2 domains using bacterial peptide display” (eLife, 2023)

target: EPHB1 (UniProt P54762); experiment: phosphorylation enrichment, bacterial display (enrichment ratio); higher = better substrate or ligand; peptides without Tyr show the background
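For SH2 binding enrichment of the phosphorylated peptide, bacterial display in this document: peptide library displayed on the E. coli surface as eCPX fusions, selected cells deep-sequenced, score is each peptide's frequency after selection divided by its frequency in the input.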
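For phosphorylation enrichment, bacterial display in this document: 11-residue human phosphosite peptides and single-mutation variants displayed on the E. coli surface, counted by deep sequencing, each peptide's frequency after selection divided by its frequency in the unselected input library; frequency after pTyr selection over input frequency; kinase dosed for 20-30% of maximal phosphorylation in three min.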

Sequence of EPHB1 (P54762 whole entry, looked up, the tested form may be a part): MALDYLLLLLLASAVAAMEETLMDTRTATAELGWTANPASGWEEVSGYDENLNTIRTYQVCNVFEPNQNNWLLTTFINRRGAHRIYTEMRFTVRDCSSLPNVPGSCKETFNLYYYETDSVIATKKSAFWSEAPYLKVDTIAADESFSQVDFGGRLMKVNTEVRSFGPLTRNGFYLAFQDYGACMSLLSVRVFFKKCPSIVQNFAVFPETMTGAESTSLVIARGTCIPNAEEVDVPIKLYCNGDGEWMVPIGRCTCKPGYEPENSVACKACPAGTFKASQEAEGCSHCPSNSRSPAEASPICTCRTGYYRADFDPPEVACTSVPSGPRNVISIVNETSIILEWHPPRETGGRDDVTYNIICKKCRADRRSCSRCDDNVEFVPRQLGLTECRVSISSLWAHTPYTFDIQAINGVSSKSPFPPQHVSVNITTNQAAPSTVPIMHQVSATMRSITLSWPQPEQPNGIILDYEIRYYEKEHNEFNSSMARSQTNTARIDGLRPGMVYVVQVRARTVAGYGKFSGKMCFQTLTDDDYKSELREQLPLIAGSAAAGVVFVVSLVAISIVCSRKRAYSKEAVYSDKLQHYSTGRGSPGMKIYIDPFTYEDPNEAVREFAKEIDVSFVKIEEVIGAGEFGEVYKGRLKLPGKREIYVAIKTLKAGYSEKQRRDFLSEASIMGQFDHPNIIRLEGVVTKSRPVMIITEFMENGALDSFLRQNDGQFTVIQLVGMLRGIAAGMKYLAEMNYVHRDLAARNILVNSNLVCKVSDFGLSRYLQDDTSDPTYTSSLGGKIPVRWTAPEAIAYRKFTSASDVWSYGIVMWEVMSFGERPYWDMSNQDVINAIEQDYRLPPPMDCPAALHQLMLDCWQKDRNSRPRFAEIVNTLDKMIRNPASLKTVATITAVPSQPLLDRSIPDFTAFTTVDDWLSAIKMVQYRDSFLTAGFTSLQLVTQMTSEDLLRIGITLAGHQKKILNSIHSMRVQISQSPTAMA

Going from TRSYKCLLLSM [NF1_Y491_Y491C] to EARRVYGDIIY [ALDH5A1_Y175_H180Y], the phosphorylation enrichment falls from 0.486 to 0.455.

Going from GGQVFHNSEFG [FLT4_Y1333_Y1333H_YF] to EFNINYNNEPP [THG1L_Y228_L232P], the phosphorylation enrichment rises from 0.4 to 0.642.

Going from RVFIKYLPEWT [PSEN1_Y240_L235R] to IGRGSYAKVLL [PRKCZ_Y263], the phosphorylation enrichment falls from 1.15 to 0.363.

First: DIRAQYDELAR [KRT18_Y256]
Second: FSMGCYEFSLG [HMGCL_Y198_I200F_YF]
The phosphorylation enrichment of the first is lower: 0.452 for the first, 1.12 for the second.

Compared with IDDLEYLHSQG [STK11_Y166_G163D], RGEEPYTKKAL [TTC21B_Y160_K157E] is lower in phosphorylation enrichment: 0.638 for the first, 0.413 for the second.

First: PIPAAYNRYDQ [CDC73_Y290]
Second: IFETDYFQKGG [INSR_Y1189_R1191Q_YF]
The phosphorylation enrichment of the first is higher: 0.433 for the first, 0.421 for the second.

Going from RFLFFYSFLLK [PTEN_Y178_V175L_YF] to ETAENYLGHTA [HSPA9_Y181], the phosphorylation enrichment falls from 0.984 to 0.43.

Going from MYVKSYTIHYS [F5_Y2153] to LEGAKYVSHGA [ASS1_Y113_R108L], the phosphorylation enrichment falls from 0.723 to 0.682.

Compared with AAVPAYDKIQV [STXBP2_Y401_R405Q], RVFRDYVLKSA [HTATIP2_Y111_D108Y_YF] is lower in phosphorylation enrichment: 0.793 for the first, 0.648 for the second.

Going from CTTIHSNFMCN [TP53_Y234_Y234S_YF] to PICEGYALPHA [ACTC1_Y171_Y168C], the phosphorylation enrichment rises from 0.448 to 0.488.

Going from KTKIGYSPLHQ [ANK1_Y735_L733I] to SSQTIYQRVEG [TFR2_Y23_V22I], the phosphorylation enrichment rises from 0.326 to 1.5.

Going from FSQQVYRVNLS [FAT4_Y480] to GFGGGYGGVLT [KRT19_Y65_A60G_YF], the phosphorylation enrichment falls from 0.563 to 0.452.

First: RFLERYIYNRE [HLA-DPB1_Y57]
Second: IVEFAYNDKAI [PUM3_Y259_YF]
The phosphorylation enrichment of the first is higher: 0.852 for the first, 0.395 for the second.

Going from IGSHAYGDQFR [IDH1_Y135_R132S_YF] to DPEGAYTTRGG [EPHA3_Y779_A777G], the phosphorylation enrichment rises from 0.32 to 0.497.

Compared with ASTDFNKRGDF [PDHA1_Y243_Y243N_YF], EGVPLYESATT [DCC_Y809] is higher in phosphorylation enrichment: 0.297 for the first, 4.19 for the second.

Going from DLRTGYSVPFG [TGM1_Y370_Y365D_YF] to ARLDEYIAIAK [RCOR3_Y46_K42R], the phosphorylation enrichment rises from 0.44 to 0.442.

For PANTVYSTVEI [SLAMF7_Y304], the phosphorylation enrichment was 2.2.

target: Grb2 SH2 (UniProt P62993); experiment: SH2 binding enrichment of the phosphorylated peptide, bacterial display (enrichment ratio); higher = better substrate or ligand; peptides without Tyr show the background
Sequence (P62993 whole entry, looked up): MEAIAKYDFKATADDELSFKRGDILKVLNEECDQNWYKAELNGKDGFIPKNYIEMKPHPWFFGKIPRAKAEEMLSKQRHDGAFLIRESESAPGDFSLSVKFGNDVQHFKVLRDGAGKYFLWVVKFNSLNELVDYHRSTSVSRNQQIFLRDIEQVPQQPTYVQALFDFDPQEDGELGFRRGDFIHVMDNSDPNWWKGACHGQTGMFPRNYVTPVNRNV

First: TRSYKCLLLSM [NF1_Y491_Y491C]
Second: EARRVYGDIIY [ALDH5A1_Y175_H180Y]
The SH2 binding enrichment of the first is higher: 1.09 for the first, 0.805 for the second.

Going from GGQVFHNSEFG [FLT4_Y1333_Y1333H_YF] to EFNINYNNEPP [THG1L_Y228_L232P], the SH2 binding enrichment falls from 0.761 to 0.742.

First: RVFIKYLPEWT [PSEN1_Y240_L235R]
Second: IGRGSYAKVLL [PRKCZ_Y263]
The SH2 binding enrichment of the first is higher: 1.33 for the first, 0.996 for the second.

Compared with DIRAQYDELAR [KRT18_Y256], FSMGCYEFSLG [HMGCL_Y198_I200F_YF] is lower in SH2 binding enrichment: 0.931 for the first, 0.923 for the second.

First: IDDLEYLHSQG [STK11_Y166_G163D]
Second: RGEEPYTKKAL [TTC21B_Y160_K157E]
The SH2 binding enrichment of the first is higher: 0.615 for the first, 0.542 for the second.

First: PIPAAYNRYDQ [CDC73_Y290]
Second: IFETDYFQKGG [INSR_Y1189_R1191Q_YF]
The SH2 binding enrichment of the first is lower: 0.75 for the first, 0.948 for the second.

Going from RFLFFYSFLLK [PTEN_Y178_V175L_YF] to ETAENYLGHTA [HSPA9_Y181], the SH2 binding enrichment falls from 1.58 to 0.972.

Compared with MYVKSYTIHYS [F5_Y2153], LEGAKYVSHGA [ASS1_Y113_R108L] is higher in SH2 binding enrichment: 0.666 for the first, 1.18 for the second.

Going from AAVPAYDKIQV [STXBP2_Y401_R405Q] to RVFRDYVLKSA [HTATIP2_Y111_D108Y_YF], the SH2 binding enrichment falls from 0.759 to 0.668.

Compared with CTTIHSNFMCN [TP53_Y234_Y234S_YF], PICEGYALPHA [ACTC1_Y171_Y168C] is higher in SH2 binding enrichment: 0.924 for the first, 0.951 for the second.

Compared with KTKIGYSPLHQ [ANK1_Y735_L733I], SSQTIYQRVEG [TFR2_Y23_V22I] is lower in SH2 binding enrichment: 0.903 for the first, 0.812 for the second.

First: FSQQVYRVNLS [FAT4_Y480]
Second: GFGGGYGGVLT [KRT19_Y65_A60G_YF]
The SH2 binding enrichment of the first is lower: 0.827 for the first, 1.06 for the second.

Compared with RFLERYIYNRE [HLA-DPB1_Y57], IVEFAYNDKAI [PUM3_Y259_YF] is lower in SH2 binding enrichment: 1.3 for the first, 0.642 for the second.

Going from IGSHAYGDQFR [IDH1_Y135_R132S_YF] to DPEGAYTTRGG [EPHA3_Y779_A777G], the SH2 binding enrichment rises from 0.892 to 0.979.

Going from ASTDFNKRGDF [PDHA1_Y243_Y243N_YF] to EGVPLYESATT [DCC_Y809], the SH2 binding enrichment rises from 0.705 to 0.731.

First: DLRTGYSVPFG [TGM1_Y370_Y365D_YF]
Second: ARLDEYIAIAK [RCOR3_Y46_K42R]
The SH2 binding enrichment of the first is higher: 0.973 for the first, 0.664 for the second.

Sequence PANTVYSTVEI [SLAMF7_Y304] has an SH2 binding enrichment of 0.925.

target: c-Src SH2; experiment: as above

Compared with TRSYKCLLLSM [NF1_Y491_Y491C], EARRVYGDIIY [ALDH5A1_Y175_H180Y] is lower in SH2 binding enrichment: 0.815 for the first, 0.504 for the second.

Going from GGQVFHNSEFG [FLT4_Y1333_Y1333H_YF] to EFNINYNNEPP [THG1L_Y228_L232P], the SH2 binding enrichment falls from 0.505 to 0.453.

Going from RVFIKYLPEWT [PSEN1_Y240_L235R] to IGRGSYAKVLL [PRKCZ_Y263], the SH2 binding enrichment rises from 0.906 to 5.41.

Going from DIRAQYDELAR [KRT18_Y256] to FSMGCYEFSLG [HMGCL_Y198_I200F_YF], the SH2 binding enrichment falls from 7.06 to 0.498.

Compared with IDDLEYLHSQG [STK11_Y166_G163D], RGEEPYTKKAL [TTC21B_Y160_K157E] is lower in SH2 binding enrichment: 0.471 for the first, 0.4 for the second.

First: PIPAAYNRYDQ [CDC73_Y290]
Second: IFETDYFQKGG [INSR_Y1189_R1191Q_YF]
The SH2 binding enrichment of the first is higher: 0.5 for the first, 0.492 for the second.

First: RFLFFYSFLLK [PTEN_Y178_V175L_YF]
Second: ETAENYLGHTA [HSPA9_Y181]
The SH2 binding enrichment of the first is higher: 0.808 for the first, 0.497 for the second.

Going from MYVKSYTIHYS [F5_Y2153] to LEGAKYVSHGA [ASS1_Y113_R108L], the SH2 binding enrichment rises from 0.443 to 0.446.

Going from AAVPAYDKIQV [STXBP2_Y401_R405Q] to RVFRDYVLKSA [HTATIP2_Y111_D108Y_YF], the SH2 binding enrichment falls from 6.48 to 0.749.

Compared with CTTIHSNFMCN [TP53_Y234_Y234S_YF], PICEGYALPHA [ACTC1_Y171_Y168C] is higher in SH2 binding enrichment: 0.988 for the first, 4.74 for the second.

Compared with KTKIGYSPLHQ [ANK1_Y735_L733I], SSQTIYQRVEG [TFR2_Y23_V22I] is higher in SH2 binding enrichment: 0.398 for the first, 1.39 for the second.

First: FSQQVYRVNLS [FAT4_Y480]
Second: GFGGGYGGVLT [KRT19_Y65_A60G_YF]
The SH2 binding enrichment of the first is higher: 0.48 for the first, 0.478 for the second.

First: RFLERYIYNRE [HLA-DPB1_Y57]
Second: IVEFAYNDKAI [PUM3_Y259_YF]
The SH2 binding enrichment of the first is higher: 1.28 for the first, 0.419 for the second.

Going from IGSHAYGDQFR [IDH1_Y135_R132S_YF] to DPEGAYTTRGG [EPHA3_Y779_A777G], the SH2 binding enrichment rises from 0.425 to 0.524.

Going from ASTDFNKRGDF [PDHA1_Y243_Y243N_YF] to EGVPLYESATT [DCC_Y809], the SH2 binding enrichment falls from 0.612 to 0.57.

Going from DLRTGYSVPFG [TGM1_Y370_Y365D_YF] to ARLDEYIAIAK [RCOR3_Y46_K42R], the SH2 binding enrichment falls from 7.49 to 0.505.

In the case of PANTVYSTVEI [SLAMF7_Y304], the SH2 binding enrichment is reported as 1.26.

target: SHP2-C SH2; experiment: as above

Going from TRSYKCLLLSM [NF1_Y491_Y491C] to EARRVYGDIIY [ALDH5A1_Y175_H180Y], the SH2 binding enrichment falls from 0.872 to 0.604.

First: GGQVFHNSEFG [FLT4_Y1333_Y1333H_YF]
Second: EFNINYNNEPP [THG1L_Y228_L232P]
The SH2 binding enrichment of the first is higher: 0.714 for the first, 0.528 for the second.

First: RVFIKYLPEWT [PSEN1_Y240_L235R]
Second: IGRGSYAKVLL [PRKCZ_Y263]
The SH2 binding enrichment of the first is lower: 1.19 for the first, 11.5 for the second.

First: DIRAQYDELAR [KRT18_Y256]
Second: FSMGCYEFSLG [HMGCL_Y198_I200F_YF]
The SH2 binding enrichment of the first is lower: 0.702 for the first, 0.976 for the second.

Going from IDDLEYLHSQG [STK11_Y166_G163D] to RGEEPYTKKAL [TTC21B_Y160_K157E], the SH2 binding enrichment rises from 0.57 to 0.634.

First: PIPAAYNRYDQ [CDC73_Y290]
Second: IFETDYFQKGG [INSR_Y1189_R1191Q_YF]
The SH2 binding enrichment of the first is higher: 0.559 for the first, 0.438 for the second.

First: RFLFFYSFLLK [PTEN_Y178_V175L_YF]
Second: ETAENYLGHTA [HSPA9_Y181]
The SH2 binding enrichment of the first is higher: 1.29 for the first, 0.588 for the second.

Compared with MYVKSYTIHYS [F5_Y2153], LEGAKYVSHGA [ASS1_Y113_R108L] is lower in SH2 binding enrichment: 0.826 for the first, 0.516 for the second.

Going from AAVPAYDKIQV [STXBP2_Y401_R405Q] to RVFRDYVLKSA [HTATIP2_Y111_D108Y_YF], the SH2 binding enrichment rises from 0.546 to 1.27.

Going from CTTIHSNFMCN [TP53_Y234_Y234S_YF] to PICEGYALPHA [ACTC1_Y171_Y168C], the SH2 binding enrichment rises from 0.914 to 0.918.

First: KTKIGYSPLHQ [ANK1_Y735_L733I]
Second: SSQTIYQRVEG [TFR2_Y23_V22I]
The SH2 binding enrichment of the first is lower: 0.827 for the first, 0.898 for the second.

Going from FSQQVYRVNLS [FAT4_Y480] to GFGGGYGGVLT [KRT19_Y65_A60G_YF], the SH2 binding enrichment rises from 0.882 to 0.999.

Compared with RFLERYIYNRE [HLA-DPB1_Y57], IVEFAYNDKAI [PUM3_Y259_YF] is lower in SH2 binding enrichment: 1.45 for the first, 0.719 for the second.

First: IGSHAYGDQFR [IDH1_Y135_R132S_YF]
Second: DPEGAYTTRGG [EPHA3_Y779_A777G]
The SH2 binding enrichment of the first is higher: 0.96 for the first, 0.911 for the second.

First: ASTDFNKRGDF [PDHA1_Y243_Y243N_YF]
Second: EGVPLYESATT [DCC_Y809]
The SH2 binding enrichment of the first is higher: 0.706 for the first, 0.489 for the second.

Compared with DLRTGYSVPFG [TGM1_Y370_Y365D_YF], ARLDEYIAIAK [RCOR3_Y46_K42R] is lower in SH2 binding enrichment: 0.928 for the first, 0.702 for the second.

Work on PANTVYSTVEI [SLAMF7_Y304] yielded an SH2 binding enrichment of 5.85.
